Reference: the supplement of paper PMC5998384

Key:
HeLa Kyoto [1] = experiment: thermal stability score vs G1/S (z-score of summed log2 fold changes over temperatures); higher = more thermally stable than in G1/S
HeLa Kyoto [2] = experiment: solubility in G1/S (NP-40 vs SDS abundance) (log2 ratio); higher = more soluble; details: cell cycle stage: G1/S
HeLa Kyoto [3] = experiment: melting temperature (median over replicates), in situ; higher = more thermally stable
HeLa Kyoto [4] = experiment: solubility change mitosis vs G1/S (difference of NP-40 vs SDS log2 ratios) (log2 ratio difference); higher = more soluble in mitosis
[5] = cell cycle stage: early G1 (4.5 h after nocodazole release)
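Wherever melting temperature (median over replicates), in situ is given: HeLa Kyoto cells synchronized by double thymidine or nocodazole block, proteins quantified by TMT10plex mass spectrometry, three independent biological replicates.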
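Wherever solubility change mitosis vs G1/S (difference of NP-40 vs SDS log2 ratios) is given: synchronized HeLa Kyoto cells (double thymidine block for G1/S, nocodazole release for mitosis), protein amounts in NP-40 versus SDS lysates quantified by mass spectrometry, three biological replicates.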
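Wherever solubility in G1/S (NP-40 vs SDS abundance) is given: HeLa Kyoto cells arrested at G1/S by double thymidine block, proteins quantified by TMT10plex mass spectrometry in mild NP-40 versus SDS extracts, three biological replicates.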
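Wherever thermal stability score vs G1/S (z-score of summed log2 fold changes over temperatures) is given: synchronized HeLa Kyoto cells, proteins quantified by TMT10plex mass spectrometry, three biological replicates, mitosis taken 0.5 h after nocodazole release, G1/S directly after double thymidine block.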

| Substance | thermal stability score (HeLa Kyoto [1]; [5]) | thermal stability score (HeLa Kyoto [1]; cell cycle stage: mitosis) | solubility in G1/S (log2) (HeLa Kyoto [2]) | melting temperature (HeLa Kyoto [3]; cell cycle stage: G1/S) | melting temperature (HeLa Kyoto [3]; cell cycle stage: mitosis) | solubility change mitosis (log2) (HeLa Kyoto [4]) |
| --- | --- | --- | --- | --- | --- | --- |
| MLKAVILIGGPQKGTRFRPLSFEVPKPLFPVAGVPMIQHHIEACAQVPGMQEILLIGFYQPDEPLTQFLEAAQQEFNLPVRYLQEFAPLGTGGGLYHFRDQILAGSPEAFFVLNADVCSDFPLSAMLEAHRRQRHPFLLLGTTANRTQSLNYGCIVENPQTHEVLHYVEKPSTFISDIINCGIYLFSPEALKPLRDVFQRNQQDGQLEDSPGLWPGAGTIRLEQDVFSALAGQGQIYVHLTDGIWSQIKSAGSALYASRLYLSRYQDTHPERLAKHTPGGPWIRGNVYIHPTAKVAPSAVLGPNVSIGKGVTVGEGVRLRESIVLHGATLQEHTCVLHSIVGWGSTVGRWARVEGTPSDPNPNDPRARMDSESLFKDGKLLPAITILGCRVRIPAEVLILNSIVLPHKELSRSFTNQIIL [GMPPA] | 0.0726 | -3.01 | 0.0728 | 54.4 °C | 53 °C | -0.00526 |
| MGGGWWWARAARLARLRFRRSLLPPQRPRSGGARGSFAPGHGPRAGASPPPVSELDRADAWLLRKAHETAFLSWFRNGLLASGIGVISFMQSDMGREAAYGFFLLGGLCVVWGSASYAVGLAALRGPMQLTLGGAAVGAGAVLAASLLWACAVGLYMGQLELDVELVPEDDGTASAEGPDEAGRPPPE [TMEM160] | -1.62 | -1.47 | -0.112 | 54.2 °C | 56.9 °C | -0.0483 |
| SMCHD1 | 3.02 | 5.78 | -0.216 | 47.4 °C | 48.7 °C | -0.104 |
| MDFNMKKLASDAGIFFTRAVQFTEEKFGQAEKTELDAHFENLLARADSTKNWTEKILRQTEVLLQPNPSARVEEFLYEKLDRKVPSRVTNGELLAQYMADAASELGPTTPYGKTLIKVAEAEKQLGAAERDFIHTASISFLTPLRNFLEGDWKTISKERRLLQNRRLDLDACKARLKKAKAAEAKATTVPDFQETRPRNYILSASASALWNDEVDKAEQELRVAQTEFDRQAEVTRLLLEGISSTHVNHLRCLHEFVKSQTTYYAQCYRHMLDLQKQLGRFPGTFVGTTEPASPPLSSTSPTTAAATMPVVPSVASLAPPGEASLCLEEVAPPASGTRKARVLYDYEAADSSELALLADELITVYSLPGMDPDWLIGERGNKKGKVPVTYLELLS [SH3GLB2] | -1.15 | 0.211 | 0.445 | 49.7 °C | 50.1 °C | -0.0988 |
| MLRMRTAGWARGWCLGCCLLLPLSLSLAAAKQLLRYRLAEEGPADVRIGNVASDLGIVTGSGEVTFSLESGSEYLKIDNLTGELSTSERRIDREKLPQCQMIFDENECFLDFEVSVIGPSQSWVDLFEGQVIVLDINDNTPTFPSPVLTLTVEENRPVGTLYLLPTATDRDFGRNGIERYELLQEPGGGGSGGESRRAGAADSAPYPGGGGNGASGGGSGGSKRRLDASEGGGGTNPGGRSSVFELQVADTPDGEKQPQLIVKGALDREQRDSYELTLRVRDGGDPPRSSQAILRVLITDVNDNSPRFEKSVYEADLAENSAPGTPILQLRAADLDVGVNGQIEYVFGAATESVRRLLRLDETSGWLSVLHRIDREEVNQLRFTVMARDRGQPPKTDKATVVLNIKDENDNVPSIEIRKIGRIPLKDGVANVAEDVLVDTPIALVQVSDRDQGENGVVTCTVVGDVPFQLKPASDTEGDQNKKKYFLHTSTPLDYEATREFNVVIVAVDSGSPSLSSNNSLIVKVGDTNDNPPMFGQSVVEVYFPENNIPGERVATVLATDADSGKNAEIAYSLDSSVMGIFAIDPDSGDILVNTVLDREQTDRYEFKVNAKDKGIPVLQGSTTVIVQVADKNDNDPKFMQDVFTFYVKENLQPNSPVGMVTVMDADKGRNAEMSLYIEENNNIFSIENDTGTIYSTMSFDREHQTTYTFRVKAVDGGDPPRSATATVSLFVMDENDNAPTVTLPKNISYTLLPPSSNVRTVVATVLATDSDDGINADLNYSIVGGNPFKLFEIDPTSGVVSLVGKLTQKHYGLHRLVVQVNDSGQPSQSTTTLVHVFVNESVSNATAIDSQIARSLHIPLTQDIAGDPSYEISKQRLSIVIGVVAGIMTVILIILIVVMARYCRSKNKNGYEAGKKDHEDFFTPQQHDKSKKPKKDKKNKKSKQPLYSSIVTVEASKPNGQRYDSVNEKLSDSPSMGRYRSVNGGPGSPDLARHYKSSSPLPTVQLHPQSPTAGKKHQAVQDLPPANTFVGAGDNISIGSDHCSEYSCQTNNKYSKQMRLHPYITVFG [PCDH7] | -1.64 | -1.07 | 0.215 | 55.1 °C | 53.4 °C | -0.075 |
| MKENKENSSPSVTSANLDHTKPCWYWDKKDLAHTPSQLEGLDPATEARYRREGARFIFDVGTRLGLHYDTLATGIIYFHRFYMFHSFKQFPRYVTGACCLFLAGKVEETPKKCKDIIKTARSLLNDVQFGQFGDDPKEEVMVLERILLQTIKFDLQVEHPYQFLLKYAKQLKGDKNKIQKLVQMAWTFVNDSLCTTLSLQWEPEIIAVAVMYLAGRLCKFEIQEWTSKPMYRRWWEQFVQDVPVDVLEDICHQILDLYSQGKQQMPHHTPHQLQQPPSLQPTPQVPQVQQSQPSQSSEPSQPQQKDPQQPAQQQQPAQQPKKPSPQPSSPRQVKRAVVVSPKEENKAAEPPPPKIPKIETTHPPLPPAHPPPDRKPPLAAALGEAEPPGPVDATDLPKVQIPPPAHPAPVHQPPPLPHRPPPPPPSSYMTGMSTTSSYMSGEGYQSLQSMMKTEGPSYGALPPAYGPPAHLPYHPHVYPPNPPPPPVPPPPASFPPPAIPPPTPGYPPPPPTYNPNFPPPPPRLPPTHAVPPHPPPGLGLPPASYPPPAVPPGGQPPVPPPIPPPGMPPVGGLGRAAWMR [CCNK] | 0.297 | 1.83 | -0.035 | 52.9 °C | 52 °C | 0.0659 |
| SLC7A5 | -2.12 | -3.93 | 0.0865 | 60.4 °C | 57.8 °C | -0.0332 |
| MEEASEGGGNDRVRNLQSEVEGVKNIMTQNVERILARGENLEHLRNKTEDLEATSEHFKTTSQKVARKFWWKNVKMIVLICVIVFIIILFIVLFATGAFS [VAMP8] | -3.17 | -6.62 | -0.136 | 57.8 °C | 55.5 °C | 0.136 |
| AKAP13 | -0.167 | 1.43 | -0.0395 | 50.6 °C | 49.6 °C | -0.118 |
| MLLKEYRICMPLTVDEYKIGQLYMISKHSHEQSDRGEGVEVVQNEPFEDPHHGNGQFTEKRVYLNSKLPSWARAVVPKIFYVTEKAWNYYPYTITEYTCSFLPKFSIHIETKYEDNKGSNDTIFDNEAKDVEREVCFIDIACDEIPERYYKESEDPKHFKSEKTGRGQLREGWRDSHQPIMCSYKLVTVKFEVWGLQTRVEQFVHKVVRDILLIGHRQAFAWVDEWYDMTMDEVREFERATQEATNKKIGIFPPAISISSIPLLPSSVRSAPSSAPSTPLSTDAPEFLSVPKDRPRKKSAPETLTLPDPEKKATLNLPGMHSSDKPCRPKSE [PITPNC1] | 0.0627 | -1.13 | -0.0542 | 51.7 °C | 51.5 °C | -0.0509 |
| MEEVPHDCPGADSAQAGRGASCQGCPNQRLCASGAGATPDTAIEEIKEKMKTVKHKILVLSGKGGVGKSTFSAHLAHGLAEDENTQIALLDIDICGPSIPKIMGLEGEQVHQSGSGWSPVYVEDNLGVMSVGFLLSSPDDAVIWRGPKKNGMIKQFLRDVDWGEVDYLIVDTPPGTSDEHLSVVRYLATAHIDGAVIITTPQEVSLQDVRKEINFCRKVKLPIIGVVENMSGFICPKCKKESQIFPPTTGGAELMCQDLEVPLLGRVPLDPLIGKNCDKGQSFFIDAPDSPATLAYRSIIQRIQEFCNLHQSKEENLISS [NUBP1] | 3.38 | 2.05 | 0.398 | 52.4 °C | 52.7 °C | 0.00361 |
| MALLRGVFVVAAKRTPFGAYGGLLKDFTATDLSEFAAKAALSAGKVSPETVDSVIMGNVLQSSSDAIYLARHVGLRVGIPKETPALTINRLCGSGFQSIVNGCQEICVKEAEVVLCGGTESMSQAPYCVRNVRFGTKLGSDIKLEDSLWVSLTDQHVQLPMAMTAENLAVKHKISREECDKYALQSQQRWKAANDAGYFNDEMAPIEVKTKKGKQTMQVDEHARPQTTLEQLQKLPPVFKKDGTVTAGNASGVADGAGAVIIASEDAVKKHNFTPLARIVGYFVSGCDPSIMGIGPVPAISGALKKAGLSLKDMDLVEVNEAFAPQYLAVERSLDLDISKTNVNGGAIALGHPLGGSGSRITAHLVHELRRRGGKYAVGSACIGGGQGIAVIIQSTA [ACAA2] | -3.39 | -4.11 | 0.213 | 59.3 °C | 59.2 °C | -0.0842 |
| MSRRRHSDENDGGQPHKRRKTSDANETEDHLESLICKVGEKSACSLESNLEGLAGVLEADLPNYKSKILRLLCTVARLLPEKLTIYTTLVGLLNARNYNFGGEFVEAMIRQLKESLKANNYNEAVYLVRFLSDLVNCHVIAAPSMVAMFENFVSVTQEEDVPQVRRDWYVYAFLSSLPWVGKELYEKKDAEMDRIFANTESYLKRRQKTHVPMLQVWTADKPHPQEEYLDCLWAQIQKLKKDRWQERHILRPYLAFDSILCEALQHNLPPFTPPPHTEDSVYPMPRVIFRMFDYTDDPEGPVMPGSHSVERFVIEENLHCIIKSHWKERKTCAAQLVSYPGKNKIPLNYHIVEVIFAELFQLPAPPHIDVMYTTLLIELCKLQPGSLPQVLAQATEMLYMRLDTMNTTCVDRFINWFSHHLSNFQFRWSWEDWSDCLSQDPESPKPKFVREVLEKCMRLSYHQRILDIVPPTFSALCPANPTCIYKYGDESSNSLPGHSVALCLAVAFKSKATNDEIFSILKDVPNPNQDDDDDEGFSFNPLKIEVFVQTLLHLAAKSFSHSFSALAKFHEVFKTLAESDEGKLHVLRVMFEVWRNHPQMIAVLVDKMIRTQIVDCAAVANWIFSSELSRDFTRLFVWEILHSTIRKMNKHVLKIQKELEEAKEKLARQHKRRSDDDDRSSDRKDGVLEEQIERLQEKVESAQSEQKNLFLVIFQRFIMILTEHLVRCETDGTSVLTPWYKNCIERLQQIFLQHHQIIQQYMVTLENLLFTAELDPHILAVFQQFCALQA [NCBP1] | 0.234 | 0.31 | -0.297 | 50 °C | 50.4 °C | -0.144 |
| MGRTYIVEETVGQYLSNINLQGKAFVSGLLIGQCSSQKDYVILATRTPPKEEQSENLKHPKAKLDNLDEEWATEHACQVSRMLPGGLLVLGVFIITTLELANDFQNALRRLMFAVEKSINRKRLWNFTEEEVSERVTLHICASTKKIFCRTYDIHDPKSSARPADWKYQSGLSSSWLSLECTVHINIHIPLSATSVSYTLEKNTKNGLTRWAKEIENGVYLINGQVKDEDCDLLEGQKKSSRGNTQATSHSFDVRVLTQLLLNSDHRSTATVQICSGSVNLKGAVKCRAYIHSSKPKVKDAVQAVKRDILNTVADRCEMLFEDLLLNEIPEKKDSEKEFHVLPYRVFVPLPGSTVMLCDYKFDDESAEEIRDHFMEMLDHTIQIEDLEIAEETNTACMSSSMNSQASLDNTDDEQPKQPIKTTMLLKIQQNIGVIAAFTVAVLAAGISFHYFSD [ODR4] | 0.605 | 0.226 | -0.0468 | 50.6 °C | 51.1 °C | -0.0887 |
